Experimental data: PMC12700558, “Aggregation shifts amyloid-β peptides from synaptogenic to synaptotoxic” (The Journal of Clinical Investigation, 2025)
“And” between values parts separate entries of the source, which are not always exact repeats. Equal values may be shown once.

Legend:
Type in all cases: cell-based
human neurons [1] = assay: Neuronal cell density (NLS-TdTomato-positive nuclei)
Procedure: The prepared aliquots of Aβ peptides were added directly to the culture media during each routine half-media change. To support optimal neuronal development, maturation, and function, while preserving essential factors released by neurons and glia, fresh media supplemented with Aβ was provided every other day until DIV10, and then once weekly until DIV45. […] During each media change, the Aβ peptides were introduced into the cultures to achieve final concentrations of 0.2 μM, 0.15 μM, 0.1 μM, 0.05 μM, 0.025 μM, and 0.005 μM. For scrambled and inverted sequence peptides, only the 0.2 μM and 0.025 μM concentrations were tested. At DIV6, we initiated a half-media replacement protocol in which 50% of the old culture medium was carefully removed and replaced with fresh medium containing Aβ peptides at twice the intended final concentration. […] For example, to achieve a final concentration of 0.2 μM, the fresh medium added at DIV6 was prepared at 0.4 μM, yielding a uniform 0.2 μM concentration after mixing with the peptide-free half. Starting from DIV8 and onward, subsequent half-media changes replaced half of the existing medium with fresh medium containing Aβ at the same target concentration (e.g., 0.2 μM), since the remaining half already contained approximately that amount. This approach was designed to mimic a chronic treatment regimen, allowing us to investigate the long-term effects of the peptides on synapse formation and neuronal activity under sustained exposure conditions.
To assess neuronal cytotoxicity induced by Aβ peptides, we employed a novel Td-Tomato cytotoxicity assay that we developed. Human neurons were infected at DIV 6 with a lentiviral vector carrying a plasmid encoding nuclear localization signal (NLS)-TdTomato under the control of the human Synapsin-1 promoter. The use of the Synapsin promoter ensured neuron-specific expression of Td-Tomato. […] When the neurons had reached full maturation, cells were examined for Td-Tomato localization. Neurons displaying cytoplasmic Td-Tomato were counted as indicators of cytotoxicity. […] For Aβ experiments, imaging and scoring were performed at DIV45, immediately after the final peptide exposure. Data were quantified by calculating the density of neurons with cytoplasmic Td-Tomato, normalized to control cultures, and presented graphically. To assess cell viability, the number of Td-Tomato–positive nuclei, which represent surviving neurons, was counted, normalized to control values, and reported in graphs.

[2] = system: human neurons cocultured with mouse glia; assay: Quantification of 6E10-positive Aβ aggregates in human neuron cultures; conditions: for Density of 6E10-positive structures (number of structures per area of field of view) / Size of 6E10-positive structures (area fraction of the field of view occupied by aggregates): human neurons/mouse glia, DIV25
Procedure: (§1) Mature human iN cells were washed 3 times with PBS (Gibco) and fixed with 4% PFA (Electron Microscopy Science) and 4% sucrose (Sigma-Aldrich) in PBS for 10 minutes at room temperature. Cells were then washed three times with PBS, followed by permeabilization and blocking with 0.25% Triton-X-100 (Sigma-Aldrich), 2.5% bovine serum albumin (BSA) (GeminiBio) and 2,5% NGS (Sigma-Aldrich) for one hour at room temperature. Incubation with primary antibodies was performed overnight at 4°C in the corresponding blocking buffer ([41]). For endosome analyses, fixing solution contained only 4% PFA and the permeabilization was performed separately before the blocking step, using 0.1% Triton-X-100. Primary Antibodies used include rabbit monoclonal anti-Synapsin-1 (Yenzym antibodies, clone YZ6078, 1:1000 dilution), mouse monoclonal anti-PSD95 (Thermo Fisher Scientific, 7E3-1B8, 1:250 dilution), chicken polyclonal anti-MAP2 (EnCor, CPCA-MAP2, 1:1000 dilution), mouse monoclonal 6E10 (BioLegend, SIG-39320, 1:1000), rabbit monoclonal anti-Synaptophysin (homemade, P580 ([26])), and rabbit monoclonal anti-EEA1(Cell Signaling, C45B10, 1:1000 dilution). Cells were washed 3 times with PBS and incubated for 1 hour at room temperature with Alexa conjugated secondary antibodies: goat anti-chicken Alexa 647, goat anti-rabbit Alexa 546, goat anti-rabbit Alexa 488, and goat anti-mouse Alexa 488, all 1:500. Coverslips were washed once with PBS and once with water to remove salts before mounting, then were mounted using Fluoromount (with DAPI) (Thermo Fisher Scientific, 00-4959-52) on glass slides. All images were taken with the Nikon A1RSi confocal microscope (Nikon Instruments Inc.) for analysis of synaptic puncta using Nikon Analysis Software.
To quantify the density and size of 6E10-immunopositive aggregates, we acquired high-resolution confocal images at 60x magnification using a Nikon Eclipse Ti microscope (Nikon, Japan). All fluorescence parameters, including laser power and detector settings, were held constant throughout image acquisition to ensure comparability across samples. We then processed and analyzed the resulting images with Nikon Analysis Software, employing standardized thresholds for object detection. For analyses conducted in human neurons, the density of 6E10-positive aggregates was determined by calculating the number of discrete objects per unit area of the imaged field. In contrast, for analyses in primary neurons, we recorded the total number of discrete objects within each field. In both cases, we measured particle size as the fraction of the total field occupied by 6E10-positive signals, using a binary region of interest encompassing the entire field of view. This approach allowed for consistent, unbiased quantification of both the distribution and relative size of immunofluorescent aggregates under different experimental conditions.

human neurons [3] = assay: Quantification of synaptic puncta (Synapsin-1 and PSD95), confocal; conditions: chronic treatment, DIV45
Procedure: as §1, with “Coverslips were washed once with PBS and once with water to remove salts before mounting, then were mounted using Fluoromount (with DAPI) (Thermo Fisher Scientific, 00-4959-52) on glass slides. All images were taken with the Nikon A1RSi confocal microscope (Nikon Instruments Inc.) for analysis of synaptic puncta using Nikon Analysis Software.” left out

human neurons [4] = assay: GCaMP6m live imaging of Ca2+ signals (network activity); design: Ca2+ imaging: Frequency / Ca2+ imaging: Amplitude: unit not given here; conditions: for Ca2+ imaging: Amplitude / Ca2+ imaging: Frequency / Ca2+ imaging: Synchronicity: single biological replicates (batches), n=3, listed as Ab42 arctic mutation
Procedure: To evaluate the effects of Aβ peptide treatments on neuronal network activity, live calcium imaging was performed using human neurons expressing the genetically encoded calcium indicator GCaMP. At DIV6, human neurons were infected with a lentiviral vector, prepared as described previously at Virus generation, carrying a plasmid encoding GCaMP6m under the control of the human Synapsin-1 promoter, ensuring neuron-specific expression. […] At DIV45, when the neurons had reached full maturation, synaptic activity was recorded. For potentiating synaptic transmission of human neurons, the cells were imaged with ambient 4 mM CaCl2 and 8 mM KCl equilibrated in a HEPES-based buffer (140 mM NaCl, 10 mM HEPES, 20 mM glucose, 1 mM MgCl2). […] Neuronal activity was captured in 2-minute videos at a frame rate of 10 frames/second, allowing for the detection of spontaneous calcium transients indicative of neuronal firing. Following acquisition, the videos were analyzed using MATLAB software (MathWorks). Regions of interest (ROIs) corresponding to 10–20 neurons were selected, and fluorescence intensity changes over time were extracted for each ROI. Analyses focused on quantifying the frequency, amplitude, and synchronicity of calcium signal peaks across the neuronal network. Signal peaks were identified using a peak detection algorithm, and synchronicity was assessed through cross-correlation analyses between neuronal pairs or by calculating network synchrony measures ([26]).

[5] = 0.1uM chronic, biological replicate 1
[6] = 0.1uM chronic, biological replicate 2
[7] = 0.1uM chronic, biological replicate 3
[8] = 0.2uM chronic, biological replicate 1
[9] = 0.2uM chronic, biological replicate 2
[10] = 0.2uM chronic, biological replicate 3
[11] = concentrations that proved synaptotoxic, DIV45

-.DAEFRHDSGYEVHHQKLVFFAGDVGSNKGAIIGLMVGGVVI.A [Aβ42^arctic]
Neuronal cell density, values normalized to Ctrl (Figure 1E) (human neurons [1]; 0.005 uM chronic DIV6-DIV45, DIV45, biological replicate 1): 0.9504 | Neuronal cell density, values normalized to Ctrl (Figure 1E) (human neurons [1]; 0.005 uM chronic DIV6-DIV45, DIV45, biological replicate 2): 0.943 | Neuronal cell density, values normalized to Ctrl (Figure 1E) (human neurons [1]; 0.005 uM chronic DIV6-DIV45, DIV45, biological replicate 3): 0.9651 | Neuronal cell density, values normalized to Ctrl (Figure 1E) (human neurons [1]; 0.05 uM chronic DIV6-DIV45, DIV45, biological replicate 1): 0.9651 | Neuronal cell density, values normalized to Ctrl (Figure 1E) (human neurons [1]; 0.05 uM chronic DIV6-DIV45, DIV45, biological replicate 2): 0.9896 | Neuronal cell density, values normalized to Ctrl (Figure 1E) (human neurons [1]; 0.05 uM chronic DIV6-DIV45, DIV45, biological replicate 3): 1.07 | Neuronal cell density, values normalized to Ctrl (Figure 1E) (human neurons [1]; 0.1 uM chronic DIV6-DIV45, DIV45, biological replicate 1): 0.9054 | Neuronal cell density, values normalized to Ctrl (Figure 1E) (human neurons [1]; 0.1 uM chronic DIV6-DIV45, DIV45, biological replicate 2): 0.8702 | Neuronal cell density, values normalized to Ctrl (Figure 1E) (human neurons [1]; 0.1 uM chronic DIV6-DIV45, DIV45, biological replicate 3): 1.014 | Neuronal cell density, values normalized to Ctrl (Figure 1E) (human neurons [1]; 0.2 uM chronic DIV6-DIV45, DIV45, biological replicate 1): 0.8081 | Neuronal cell density, values normalized to Ctrl (Figure 1E) (human neurons [1]; 0.2 uM chronic DIV6-DIV45, DIV45, biological replicate 2): 0.8351 | Neuronal cell density, values normalized to Ctrl (Figure 1E) (human neurons [1]; 0.2 uM chronic DIV6-DIV45, DIV45, biological replicate 3): 0.7942 | Decrease of neuronal cell numbers (human neurons [1]; higher concentrations, chronic exposure, DIV45): approximately 15% | Density of 6E10-positive structures (number of structures per area of field of view) [2, 5]: 0.009289 | Size of 6E10-positive structures (area fraction of the field of view occupied by aggregates) [2, 5]: 0.02043 | Density of 6E10-positive structures (number of structures per area of field of view) [2, 6]: 0.01336 | Size of 6E10-positive structures (area fraction of the field of view occupied by aggregates) [2, 6]: 0.034 | Density of 6E10-positive structures (number of structures per area of field of view) [2, 7]: 0.01613 | Size of 6E10-positive structures (area fraction of the field of view occupied by aggregates) [2, 7]: 0.04071 | Density of 6E10-positive structures (number of structures per area of field of view) [2, 8]: 0.03615 | Size of 6E10-positive structures (area fraction of the field of view occupied by aggregates) [2, 8]: 0.05614 | Density of 6E10-positive structures (number of structures per area of field of view) [2, 9]: 0.04641 | Size of 6E10-positive structures (area fraction of the field of view occupied by aggregates) [2, 9]: 0.04714 | Density of 6E10-positive structures (number of structures per area of field of view) [2, 10]: 0.06233 | Size of 6E10-positive structures (area fraction of the field of view occupied by aggregates) [2, 10]: 0.04014 | 6E10-positive Aβ aggregates in treated human neurons (in words) ([2]; chronic exposure, immunofluorescence with 6E10 antibody): significant 6E10-positive Aβ aggregates | Loss of synapses (human neurons [3]; high concentrations): greater than 55% | Effect on synapse numbers (in words) (human neurons [3]; lower concentrations): did not increase synapse numbers | Neuronal network activity (in words) (human neurons [4]; any concentration, chronic treatment, DIV45): did not enhance neuronal network activity at any concentration | Spike frequency and amplitude (in words) (human neurons [4]; [11]): pronounced fall | Synchrony (in words) (human neurons [4]; [11]): near-complete breakdown | Ca2+ imaging: Amplitude (human neurons [4]; peptide 0.1 uM): 0.4784 and 0.3202 and 0.4832 | Ca2+ imaging: Frequency (human neurons [4]; peptide 0.1 uM): 10.7529 and 5.405 and 6.996 | Ca2+ imaging: Synchronicity (human neurons [4]; peptide 0.1 uM): 0.2834 and 0.2877 and 0.3503 | Ca2+ imaging: Amplitude (human neurons [4]; peptide 0.2 uM): 0.3279 and 0.286 and 0.3267 | Ca2+ imaging: Frequency (human neurons [4]; peptide 0.2 uM): 0.6879 and 0.8917 and 1.347 | Ca2+ imaging: Synchronicity (human neurons [4]; peptide 0.2 uM): 0.2149 and 0.1382 and 0.2492
